Reference: patent US20210230664

Tested on: dCas9 (SpCas9 D10A/H840A) D10A,H840A (Streptococcus pyogenes)
Conditions: nanochannel imaging; NEB Buffer 3, BSA, 37 C 60 min; about 16% of labels off-target; PAM not stated

For “DUF1220 crRNA (with tracrRNA-ATTO647) ; linearized BAC DNA with DUF1220 repeats”, the activity (% target sites labeled) was 86.
